Assay results as given in patent publication EP3250590B1 (Academia Sinica, dated 2021).
Numbering of substitutions follows the chain as printed.

B1: 3rd humanized MC41 IgG (antibody, V domains shown)
VH: QVQLKESGPGLVAPSKTLSLTCTVSGFSLSSQGVYWIRQPPGKGLEWIGAIWAGGSTNYNSALMSRLSISKDNSKSQVFLKMNSLQTDDTAMYYCARVDGYRGYNMDYWGQGTSVTVSS
VL: ENVLTQSPAIMSATPGEKVTMTCSASSSVSYMHWYQQKSSTSPKLWIYDTSKLASGVPGRFSGSGSGNSYTLTISSMEAEDVATYYCFQGSGYPLTFGAGTKLEIKR
notes: also called 3rd-hMC41
B2: 2nd humanized MC41 IgG (antibody, V domains shown)
VH: B1 VH with S114L
VL: B1 VL with M32L
notes: also called hMC41; humanized 2nd IgG
B3: chimeric MC41 (antibody, V domains shown)
VH: B1 VH with T17S, L20I, I37V, I48L
VL: B1 VL with T14S, T71S, I105L
notes: Chimeric intact IgG of murine MC41; also called chMC41

Target: T1, BSA (bovine, UniProt P02769 25-607)
T1 construct: also called BSA control protein; bovine serum albumin
Assay: ELISA, intact IgG on coated BSA

T1 sequence (P02769 25-607 limits assumed): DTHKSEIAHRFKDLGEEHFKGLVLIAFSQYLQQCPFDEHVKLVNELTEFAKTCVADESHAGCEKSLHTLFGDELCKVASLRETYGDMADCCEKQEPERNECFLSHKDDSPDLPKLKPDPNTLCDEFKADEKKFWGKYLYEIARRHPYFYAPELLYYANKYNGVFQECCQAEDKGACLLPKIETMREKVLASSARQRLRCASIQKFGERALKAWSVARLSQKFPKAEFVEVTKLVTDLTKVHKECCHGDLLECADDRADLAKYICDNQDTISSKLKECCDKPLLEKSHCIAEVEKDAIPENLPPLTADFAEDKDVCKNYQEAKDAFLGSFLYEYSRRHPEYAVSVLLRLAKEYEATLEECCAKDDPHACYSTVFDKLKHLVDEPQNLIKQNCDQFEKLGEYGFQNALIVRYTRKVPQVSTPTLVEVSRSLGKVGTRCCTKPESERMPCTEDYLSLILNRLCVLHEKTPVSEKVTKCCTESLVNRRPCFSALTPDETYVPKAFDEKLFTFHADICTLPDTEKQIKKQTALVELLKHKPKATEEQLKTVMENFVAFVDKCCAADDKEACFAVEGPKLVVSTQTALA

Binding result, no binding:
B1, B2, B3
